Source: patent US20040171005A1, “Codon-optimised nucleic acid coding for apoaequorin and uses thereof” (priority 2001, published 2004)

Assays:
HEK293 cells = assay: Aequorin luminescence (calcium flux) after Ionomycin stimulation of transiently transfected cells; assay type: cell-based; settings: for Peak Relative Light Units (RLU) following Ionomycin Stimulation: HEK293 cells transiently transfected, 48 hours post transfection; for fold increase in RLU relative to wild type aequorin: number in parenthesis; for fold increase in luminescent output (RLU) with the codon optimised aequorin: text summary over 1 and 2 μM CaCl2, Ionomycin stimulation, versus wild type
Method: CHOK1 and Phoenix (HEK293 derived) cells were grown in Ham's F12 and DMEM respectively. The medium was supplemented with10% foetal calf serum, 2 mM glutamine, penicillin and streptomycin 100 μg/ml.
Cells were seeded in Costar 6 well plates at a density of 5×10^5 18-24 hours prior to transfection. On the day of transfection the cells were 85-90% confluent. Plasmids, cytaeqHA1(9aa)pcDNA3#2 and hucytaeqHA(9aa)pcDNA3#20, were transfected into the cells using Lipofectamine Plus reagents. A co-transfection with EGFP (Clontech) allowed transfection variation between wells to be ascertained. A modification to the standard protocol from Life Technologies was used. In summary, 2 μg of DNA (1 μg of each for co-transfections) diluted in 400 μl of HamsF12+12 μl lipofectamnine plus reagent was incubated for 15 minutes at room temperature. 8 μl of Lipofectamine reagent +400 μl of HamsF12 medium was also incubated for 15 minutes at room temperature. The two mixtures were combined and incubated for a further 15 minutes before being aspirated onto the cells containing 1.6 mls of Ham's F12 medium. The plates were incubated for 3 hours at 37° C. 5% CO2. The transfection reagents were replaced with Ham's F12 complete medium and the cells incubated for 24 hours. At 24 hours the cells were transferred to 96 well plates. 48 hours post transfection the 96 wells were rinsed in PBS and replaced with 50 μl of DMEM (without phenol red) containing 1% heat inactivated FCS and 2.5 μm hcp coelenterazine. The cells were incubated at 37° C. 5% CO2 for 3 hours. The wells were aspirated of the coelenterazine mix and replaced with 175 μl of PBS containing either 1 μM or 2 μM CaCl2. The plates were transferred to Tropix TR717 luminometer for stimulation. 2 μM of ionomycin (25 μl), a calcium ionophore, was injected into the wells and the reaction recorded over 60 seconds. 1:
Numbers in parenthesis represent the fold increase in RLU relative to wild type aequorin.

HEK 293 cells = assay: Immunoblotting of HA-tagged aequorin expression (3F10 antibody, pixel quantification); assay type: cell-based; settings: western blot against HA epitope; HEK 293 lysates 48 hours post transfection; ImageQuant pixel quantification
Method: Expression of recombinant protein was verified by immuoblotting using Anti-HA-Peroxidase, High Affinity (3F10) monoclonal antibody (Roche). This antibody recognizes the HA peptide sequence […] derived from the […] hemagglutinin protein (Kolodziej &Young, Methods Enzymol. 194:508-511, […]). HEK 293 cells were transiently transfected with the codon optimised and the wild type aequorin constructs. Cell lysates were prepared 48 hours post transfection, proteins (130 μg) separated by SDS-PAGE electrophoresis, transferred to nylon membrane and stained with a 1:500 dilution of 3F10 antibody. Protein expression was quantitated using pixel quantification in ImageQuant software (Molecular Dynamics) and indicated a 8-fold increase in expression of cythuAEQ over cytAEQ.

B1: Wild type: Wild-type jellyfish apoaequorin gene SEQ ID NO: 2 with HA1 epitope in pcDNA3, used as control (nucleic acid, listed as Aequorea victoria)
DNA: ATGAAGCTTACATCAGACTTCGACAACCCAAGATGGATTGGACGACACAAGCATATGTTCAATTTCCTTGATGTCAACCACAATGGAAAAATCTCTCTTGACGAGATGGTCTACAAGGCATCTGATATTGTCATCAATAACCTTGGAGCAACACCTGAGCAAGCCAAACGACACAAAGATGCTGTAGAAGCCTTCTTCGGAGGAGCTGGAATGAAATATGGTGTGGAAACTGATTGGCCTGCATATATTGAAGGATGGAAAAAATTGGCTACTGATGAATTGGAGAAATACGCCAAAAACGAACCAACGCTCATCCGTATATGGGGTGATGCTTTGTTTGATATCGTTGACAAAGATCAAAATGGAGCCATTACACTGGATGAATGGAAAGCATACACCAAAGCTGCTGGTATCATCCAATCATCAGAAGATTGCGAGGAAACATTCAGAGTGTGCGATATTGATGAAAGTGGACAACTCGATGTTGATGAGATGACAAGACAACATTTAGGATTTTGGTACACCATGGATCCTGCTTGCGAAAAGCTCTACGGTGGAGCTGTCCCCTAA
modifications: HA1 epitope fused, in pcDNA3
HEK293 cells; 1 μM CaCl2
  Peak Relative Light Units (RLU) following Ionomycin Stimulation: 944 RLU
HEK293 cells; 2 μM CaCl2
  Peak Relative Light Units (RLU) following Ionomycin Stimulation: 734 RLU

B2: Codon optimised: Codon-optimised (humanised) apoaequorin coding sequence SEQ ID NO: 3 with HA1 epitope, in pcDNA3 expression plasmid (nucleic acid)
DNA: ATGAAGCTGACCCCCGACTTCGACAACCCCAAGTGGATCGGCCGCCACAAGCACATGTTCAACTTCCTGGACGTGAACCACAACGGCCGCATCAGCCTGGACGAGATGGTGTACAAGGCCAGCGACATCGTGATCAACAACCTGGGCGCCACCCCCGAGCAGGCCAAGCGCCACAAGGACGCCGTGGAGGCCTTCTTCGGCGGCGCCGGCATGAAGTACGGCGTGGAGACGGAGTGGCCCGAGTACATCGAGGGCTGGAAGCGCCTGGCCTCCGAGGAACTGAAGCGCTACAGCAAGAACCAGATCACCCTGATCCGCCTGTGGGGCGACGCCCTGTTCGACATCATCGACAAGGACCAGAACGGCGCCATCTCCCTGGATGAGTGGAAGGCCTACACCAAGTCCGTCGGCATCATCCAGTCCTCCGAGGACTGCGAGGAGACGTTCCGCGTGTGCGACATCGACGAGAGCGGCCAGCTGGACGTGGACGAGATGACCCGCCAGCACCTGGGCTTCTGGTACACCATGGACCCCGCCTGCGAGAAGCTGTACGGCGGCGCCGTGCCCTAA
modifications: HA1 epitope fused, in pcDNA3; humanised apoaequorin
HEK293 cells; 1 μM CaCl2
  Peak Relative Light Units (RLU) following Ionomycin Stimulation: 18008 RLU
  fold increase in RLU relative to wild type aequorin: 19 fold
HEK293 cells; 2 μM CaCl2
  Peak Relative Light Units (RLU) following Ionomycin Stimulation: 15561 RLU
  fold increase in RLU relative to wild type aequorin: 21 fold
HEK293 cells; listed as codon optimised aequorin
  fold increase in luminescent output (RLU) with the codon optimised aequorin: 19-21 fold
HEK293 cells; listed as codon-optimised sequence
  fold increase in luminescent output (RLU) with the codon optimised aequorin: > 20 fold
HEK 293 cells
  fold increase in expression over non-humanised (wild type) aequorin: ~8 fold
